According to patent US20070014776A1, “Identification of adiponutrin-related proteins as esterases and methods of use for the same” (priority 2005, published 2007):

B1: desnutrin/ATGL: human desnutrin/adipocyte triglyceride lipase protein, SEQ ID NO:5 (protein, listed as Homo sapiens)
chain: MFPREKTWNISFAGCGFLGVYYVGVASCLREHAPFLVANATHIYGASAGALTATALVTGVCLGEAGAKFIEVSKEARKRFLGPLHPSFNLVKIIRSFLLKVLPADSHEHASGRLGISLTRVSDGENVIISHFNSKDELIQANVCSGFIPVYCGLIPPSLQGVRYVDGGISDNLPLYELKNTITVSPFSGESDICPQDSSTNIHELRVTNTSIQFNLRNLYRLSKALFPPEPLVLREMCKQGYRDGLRFLQRNGLLNRPNPLLALPPARPHGPEDKDQAVESAQAEDYSQLPGEDHILEHLPARLNEALLEACVEPTDLLTTLSNMLPVRLATAMMVPYTLPLESALSFTIRLLEWLPDVPEDIRWMKEQTGSICQYLVMRAKRKLGRHLPSRLPEQVELRRVQSLPSVPLSCAAYREALPGWMRNNLSLGDALAKWEECQRQLLLGLFCTNVAFPPEALRMRAPADPAPAPADPASPQHQPAGPAPLLSTPAPEARPVIGALGL
B2: GS2-like: human GS2-like protein, SEQ ID NO:11; adiponutrin family member (protein, listed as Homo sapiens)
chain: MGFLEEEGRWNLSFSGAGYLGAHHVGATECLRQRAPRLLQGARRIYGSSSGALNAVSIVCGKSVDFCCSHLLGMVGQLERLSLSILHPAYAPIEHVKQQLQDALPPDAHVLASQRLGISLTRWPDGRNFLVTDFATCDELIQALVCTLYFPFYCGLIPPEFRGERYIDGALSNNLPFADCPSTITVSPFHGTVDICPQSTSPNLHELNVFNFSFQISTENFFLGLICLIPPSLEVVADNCRQGYLDALRFLERRGLTKEPVLWTLVSKEPPAPADGNWDAGCDQRWKGGLSLNWKVPHVQVKDVPNFEQLSPELEAALKKACTRDPSRWARFWHSGPGQVLTYLLLPCTLPFEYIYFRSRRLVVWLPDVPADLWWMQGLLRNMALEVFSRTKAQLLGPISPPATRVLETSPLQPQIAPHREELGPTHQA
B3: adiponutrin: human adiponutrin protein, SEQ ID NO:2; patatin-like domain protein of the adiponutrin family, expressed recombinantly (protein, listed as Homo sapiens)
chain: MYDAERGWSLSFAGCGFLGFYHVGATRCLSEHAPHLLRDARMLFGASAGALHCVGVLSGIPLEQTLQVLSDLVRKARSRNIGIFHPSFNLSKFLRQGLGKCLPANVHQLISGKIGISLTRVSDGENVLVSDFRSKDEVVDALVCSCFMPFYSGLIPPSFRGVRYVDGGVSDNVPFIDAKTTITVSPFYGEYDICPKVKSTNFLHVDITKLSLRLCTGNLYLLSRAFVPPDLKVLGEICLRGYLDAFRFLEEKGICNRPQPGLKSSSEGMDPEVAMPSWANMSLDSSPESAALAVRLEGDELLDHLRLSILPWDESILDTLSPRLATALSEEMKDKGGYMSKICNLLPIRIMSYVMLPCTLPVESAIAIVQRLVTWLPDMPDDVLWLQWVTSQVFTRVLMCLLPASRSQMPVSSQQASPCTPEQDWPCWTPCSPEGCPAETKAEATPRSILRSSLNFFLGNKVPAGAEGLSTFPSFSLEKSL
B4: GS2: human GS2 protein, SEQ ID NO:8; adiponutrin family member (protein, listed as Homo sapiens)
chain: MKHINLSFAACGFLGIYHLGAASALCRHGKKLVKDVKAFAGASAGSLVASVLLTAPEKIEECNQFTYKFAEEIRRQSFGAVTPGYDFMARLRSGMESILPPSAHELAQNRLHVSITNAKTRENHLVSTFSSREDLIKVLLASSFVPIYAGLKLVEYKGQKWVDGGLTNALPILPVGRTVTISPFSGRLDISPQDKGQLDLYVNIAKQDIMLSLANLVRLNQALFPPSKRKMESLYQCGFDDTVKFLLKENWFE

Columns and labels:
[1] = system: 3T3-L1 adipocytes; assay: Effect of adiponutrin overexpression on 3T3-L1 lipase activity (free fatty acid and glycerol release); assay type: cell-based, mouse
Experimental: For adenovirus infection, 3T3-L1 cells were cultured in DMEM with 10% FBS at 37° C. with 5% CO2. Two days after the cultures were confluent, the cells were induced to differentiate (defined as day 0) by incubation in DMEM supplemented with 10% FBS, 1 μM dexamethasone (Sigma, St. Louis, Mo.), 0.5 mM isobutylmethylxanthine (Sigma) (MIX), and 1 μg/ml insulin (Sigma). After two days, the medium was replaced with DMEM supplemented with 10% FBS and 1 μg/ml insulin, and cells were then fed every 2 days with the same medium. At day 8 of differentiation, cells grown in 24-well plates were incubated with 500 MOI of adenovirus in OPTI-MEM (Invitrogen, Carlsbad, Calif.) for 2 hours and then DMEM with 10% FBS. After 48 hours, cells were incubated with DMEM with no serum overnight. The next day, cells were washed three times with PBS and incubated with PBS with 2% fatty acid-free BSA (Sigma, St. Louis, Mo.) with 10 μM or 100 nM of isoproterenol (Sigma). When needed, cells were preincubated with 100 nM insulin 30 min prior to isoproterenol treatment. Conditioned medium was taken at the indicated 0-4 hours after isoproterenol treatment and analyzed for free fatty acids and glycerol. Free fatty acids release was measured by using a NEFA-c kit (Wako Chemicals, Richmond, Va.) and glycerol release was measured by using a lipolysis kit (Zen-bio, Research Triangle Park, N.C.).

[2] = system: HEK293 cells; assay: [1-14C]-oleic acid incorporation into triglyceride in transfected HEK293 cells; assay type: cell-based; details: overexpression in HEK293 cells; for intracellular triglycerides: compared to control cells (empty vector), FIG. 7
Experimental: HEK293 cells were cultured in Dulbecco's modified Eagle's medium (DMEM) that contained 10% FBS at 37° C. with 5% CO2. HEK293 cells grown in 12-well plates to 60-70% confluence were transfected with 0.5 μg of human adiponutrin, desnutrin/ATGL, GS2, or GS2-like expression vector using FuGene (Roche). Empty vector, pADORI1.2 was used as a control. After 48 hours, cells were treated with 4 μM [1-^14C]-oleic acid (204 μCi/ml total; Perkin Elmer) and 16 μM cold oleic acid (Sigma) in serum-free DMEM. After 4 hours, cells were washed twice and incubated further with DMEM with 10% FBS. After 16 hours, lipids were extracted and separated by TLC using hexane/ether/acetic acid (80:20:1). Radioactive lipids were detected and quantitated by Molecular Imager FX (Bio-Rad).

[3] = Lipase assay with DGGR substrate on immunoprecipitated V5-tagged proteins; assay type: biochemical; details: V5-tagged WT vs patatin-like domain mutant (Ser of GXSXG to Ala); FIG. 6
Experimental: HEK293 cells were grown in DMEM media supplemented with 10% fetal calf serum at 37° C. in an atmosphere of 5% CO2. Ten cm tissue culture dishes with 90% confluent HEK293 cells were transfected using Lipofectamine 2000 according to the manufacturer's instructions (Invitrogen, Carlsbad, Calif.). Ten μg of plasmid DNA containing the following expression constructs were used: GFP, human adiponutrin, human adiponutrin-c-term-V5, human desnutrin/ATGL-c-term-V5-6His, human GS2-c-term-V5, human GS2-like-c-term-V5-6His, and patatin-like domain mutants of c-term-V5 and c-term-V5-6His tagged constructs. Three days post-transfection, cells were washed with ice cold TBS and harvested. Cells were pelleted by centrifugation at 1000×g for 5 minutes. Supernatant was discarded, and pellets stored at −80° C. until used for assays.
Frozen cells, as described above, were resuspended in 1 ml of lipase reaction buffer (20 mM Tris-HCl, pH 8.0, 150 mM NaCl, 0.53% sodium taurodeoxycholate, 1.33 mM CaCl2) containing complete mini-protein inhibitor tablets (Invitrogen, Carlsbad, Calif.; 1 tablet per 7 ml). The resulting suspensions were then sonicated on ice with 4 bursts of 10 seconds from a probe sonicator. Homogenized lysate was then centrifuged at 1000×g for 10 minutes to remove cell debris. A 50 μl aliquot of the resulting lysate was saved for analysis and the remaining lysate was used for the immunoprecipitation. Anti-V5 mouse monoclonal antibody (7.2 μg; Invitrogen, Carlsbad, Calif.) was added to each lysate and then placed at 4° C. overnight with tumbling. Next, 20 μl of protein-A beads (Repligen) was added to each sample and tumbled at 4° C. for 2 hours. Beads were then pelleted with gentle centrifugation and […] of supernatant was saved for analysis. The beads were washed 4 times with 900 μl of lipase reaction buffer followed by resuspension in 100 μl of lipase reaction buffer.
The lipase assay (Lehner and Verger (1997) Biochemistry 36:1861-68) uses 1,2-o-dilauryl-rac-glycero-3-glutaric acid-(6′-methylresorufin) ester (DGGR) as substrate. DGGR is cleaved by lipase, resulting in an unstable dicarbonic acid ester that is spontaneously hydrolyzed to yield glutaric acid and methylresorufin, a bluish-purple chromophore with peak absorption at 581 nm. The rate of methylresorufin formation is directly proportional to the lipase activity in the sample. Ten μl of whole cell lysate or IP beads were added to the wells of a 96-well plate. After diluting the samples up to 125 μl in lipase reaction buffer, 125 μl of reaction buffer containing DGGR (final concentration 36 μg/ml in a final assay volume of 250 μl per well). After mixing, OD 581 was monitored at 5 minute intervals for 2 hours to assess lipase activity. Lipase activity is plotted as delta-OD 581/sec. […]

[4] = adenoviral overexpression in 3T3-L1 adipocytes, after treatment with 10 μM isoproterenol, vs GFP, FIG. 8

Row | Molecule | isoproterenol-stimulated lipolysis ([1]; submaximal isoproterenol, preincubation with 100 nM insulin, FIG. 9) | intracellular triglycerides [2] | rate of lipid hydrolysis, wild-type versus active-site serine to alanine mutant [3] | release of free fatty acids into the medium [1, 4] | release of glycerol into the medium [1, 4] | basal lipolysis ([1]; adenoviral overexpression in 3T3-L1 adipocytes, no isoproterenol, FIG. 9) | inhibition of lipolysis by insulin ([1]; adenoviral overexpression in 3T3-L1 adipocytes, submaximal isoproterenol plus insulin, FIG. 9) | triglyceride incorporation ([2]; in several experiments (data not shown))
1 | insulin [reference compound] | decreased |  |  |  |  |  |  | 
2 | B1 |  | significant decrease | significantly higher |  |  |  |  | 
3 | B2 |  | decreased intracellular triglycerides significantly | not affected |  |  |  |  | 
4 | B3 |  | unable to demonstrate a decrease | significantly higher | significantly decreased | significantly decreased | no effect | significantly enhanced | trend toward increased triglyceride incorporation
5 | B4 |  | decreased intracellular triglycerides significantly | significantly higher |  |  |  |  | 
